One assay addresses T1, pCdc25C (Homo sapiens).
T1 chain: EQPL[pT]PVTDL
In words: ITC. For orientation: Isothermal titration calorimetry measures the heat released or taken up as one component is titrated into another.

In the next assay the target is T2, trans-locked inhibitor (also: trans-locked alkene isostere, place not given here).
T2 chain: FF[pS]PR
In words: NMR titration.

A further assay deals with T3, cis-locked inhibitor (also: cis-locked alkene isostere, place not given here).
T3 chain: FF[pS]PR
In words: NMR titration.

In general, Kd refers to the free concentration of one partner at which half of the binding sites on the other are occupied at equilibrium, for simple one-to-one binding. A lower Kd goes with higher affinity.

Where no end group is shown, it is not given here. [ ]: non-standard residue; d: D form. pT = C[C@@H](OP(=O)(O)O)[C@H](N)C(=O)O; pS = N[C@@H](COP(=O)(O)O)C(=O)O

B1: Pin1 PPIase domain (isolated) PPIase (protein)
chain: PARVRCSHLLVKHSQSRRPSSWRQEKITRTKEEALELINGYIQKIKSGEEDFESLASQFSDCSSAKARGDLGAFSRGQMQKPFEDASFALRTGEMSGPVFTDSGIHIILRTE
As for B1, the Kd is more than 1000 µM in the assay with pCdc25C, 66 µM with trans-locked inhibitor and 7 µM with cis-locked inhibitor.

Source of the values: PMC4610412 (2016).
